From US20260028402A1 (SANYOU BIOPHARMACEUTICALS, published 2026)
Changes are numbered by the printed parent chain.

B1: A9 (antibody, human IgG4 S228P, V domains shown)
VH: QVQLVESGGGLVQAGGSLRLSCAASGFSLDYYAIGWFRQAPGKEREEVSCISSSGGSTDYADSVKGRFTISRAYAKVYLQMNSLKPEDTAVYYCAAGVSGSVCPPLIGAYWGQGTQVTVSS
notes: also called antibody A9; antibody molecule A9
B2: A31 (antibody, human IgG4 S228P, V domains shown)
VH: EVQLVESGGGLVQPEGSLRLSCAASGFPLDYYAIGWFRQAPGKEREGVSCIISGGSTKYSASVKGRFTISRDSANNTVYLQMNSLKPEDTAVYFCAVSWSCDLFPRDTYGWDAWGQGTLVTVSS
notes: also called antibody A31; antibody molecule A31
B3: Pepinemab (antibody, V domains shown)
VH: QVQLVQSGAEVKKPGSSVKVSCKASGYSFSDYYMHWVRQAPGQGLEWMGQINPTTGGASYNQKFKGKATITVDKSTSTAYMELSSLRSEDTAVYYCARYYYGRHFDVWGQGTTVTVSS
VL: DIVMTQSPDSLAVSLGERATINCKASQSVDYDGDSYMNWYQQKPGQPPKLLIYAASNLESGVPDRFSGSGSGTDFTLTISSLQAEDVAVYYCQQSNEDPYTFGQGTKLEIK
B4: A31-VHH (VHH)
VHH: B2 VH
notes: Tested as phage clone / VHH lysate in the screening; also called antibody A31-VHH
B5: A31-VHH1 (antibody, human IgG4 S228P, V domains shown)
VH: B2 VH with N75K, K86R, P87A
notes: also called humanized antibody A31-VHH1
B6: MusCD100-Fc (Fc fusion, mouse, UniProt O09126 24-733, looked up)
chain: FAPVPRLTWEHGEVGLVQFHKPGIFNYSALLMSEDKDTLYVGAREAVFAVNALNISEKQHEVYWKVSEDKKSKCAEKGKSKQTECLNYIRVLQPLSSTSLYVCGTNAFQPTCDHLNLTSFKFLGKSEDGKGRCPFDPAHSYTSVMVGGELYSGTSYNFLGSEPIISRNSSHSPLRTEYAIPWLNEPSFVFADVIQKSPDGPEGEDDKVYFFFTEVSVEYEFVFKLMIPRVARVCKGDQGGLRTLQKKWTSFLKARLICSKPDSGLVFNILQDVFVLRAPGLKEPVFYAVFTPQLNNVGLSAVCAYTLATVEAVFSRGKYMQSATVEQSHTKWVRYNGPVPTPRPGACIDSEARAANYTSSLNLPDKTLQFVKDHPLMDDSVTPIDNRPKLIKKDVNYTQIVVDRTQALDGTFYDVMFISTDRGALHKAVILTKEVHVIEETQLFRDSEPVLTLLLSSKKGRKFVYAGSNSGVVQAPLAFCEKHGSCEDCVLARDPYCAWSPAIKACVTLHQEEASSRGWIQDMSGDTSSCLDKSKESFNQHFFKHGGTAELKCFQKSNLARVVWKFQNGELKAASPKYGFVGRKHLLIFNLSDGDSGVYQCLSEERVRNKTVSQLLAKHVLEVKMVPRTPPSPTSEDAQTEGSKITSKMPVASTQGSSPPTPALWATSPRAATLPPKSSSGTSCEPKMVINTVPQLHSEKTVYLKSSDNR
modifications: biotinylated in the Plexin binding and blocking assays (sites not given)
notes: range 24-733; Expressed in HEK293 cells; also called MusCD100-Fc-Biotin; MusCD100-Fc antigen protein; not shown: human Fc tag added to the C-terminus
B7: A9-VHH2 (antibody, human IgG4 S228P, V domains shown)
VH: B1 VH with K85R, P86A, Q116L
B8: A9-VHH1 (antibody, human IgG4 S228P, V domains shown)
VH: B1 VH with A14P, Q116L
B9: A9-VHH3 (antibody, human IgG4 S228P, V domains shown)
VH: B1 VH with E44G, R45L, K85R, P86A, Q116L

molecular target: T1, full-length human CD100 protein HuCD100 on cells (human, UniProt Q92854 22-862); test: flow cytometry on HuPBMCs naturally expressing human CD100
T1 construct: whole, on cells; the cell is named under assay; also called HuCD100-HEK293; human CD100 on HuPBMC
Protocol: (§1) The specific procedures were as follows: HuPBMCs (AllCells, PB004F-C (Y1246)) and Jurkat cells (ATCC, TIB-152) in logarithmic growth phase were prepared as single-cell suspensions. The density was adjusted to 1×10⁶ cells/mL, and 100 μL of each suspension was added per well to 96-well plates. The plates were centrifuged at 4° C., 300 g and the supernatants were removed. […] After incubation, the cell mixture was washed three times, and then 100 μL of 1:300 diluted secondary antibody Goat F(ab′)₂ Anti-Human IgG-Fc (PE) (abcam, ab98596) was added, and the plates were incubated in the dark at 4° C. for 30 min. Following 3 additional washes, detection was performed using a flow cytometer (Beckman, CytoFLEX AOO-1-1102).

In order of falling EC50:
1. B3  0.223 nM
2. B1  0.191 nM
3. B2  0.162 nM

molecular target: T2, MusCD100-His (mouse, UniProt O09126 24-733); test: primary ELISA screening of monoclonal clones
T2 construct: range 24-733; Expressed in HEK293 cells; also called MusCD100-His antigen protein; not shown: His tag added to the C-terminus

B4: binds.

molecular target: T2, MusCD100-His; test: ELISA, antigen coated on plate

B5: binds.

molecular target: T3, full-length mouse Plexin-B1 protein MusPlexin-B1 on cells (mouse, UniProt Q8CJH3 20-2119); test: flow cytometry on MusPlexin-B1-HEK293 cells with biotinylated antigen protein and streptavidin PE
T3 construct: whole, on cells; Overexpressed on HEK293 cells; also called MusPlexin-B1-HEK293
Protocol: Flow cytometry identification of HuPlexin-B1-HEK293, MusPlexin-B1-HEK293, CynoPlexin-B1-HEK293, and HuPlexin-B2-HEK293 cells: cells of the above cell lines in the logarithmic growth phase were trypsinized and plated into 96-well plates. […] After washing, the prepared eBioscience Streptavidin PE (Invitrogen, 2265658, 1:300) was added and the plates were incubated at 4° C. for 30 min. Finally, detection was performed using a flow cytometer (Beckman, CytoFLEXAOO-1-1102).

T3 sequence (Q8CJH3 20-2119): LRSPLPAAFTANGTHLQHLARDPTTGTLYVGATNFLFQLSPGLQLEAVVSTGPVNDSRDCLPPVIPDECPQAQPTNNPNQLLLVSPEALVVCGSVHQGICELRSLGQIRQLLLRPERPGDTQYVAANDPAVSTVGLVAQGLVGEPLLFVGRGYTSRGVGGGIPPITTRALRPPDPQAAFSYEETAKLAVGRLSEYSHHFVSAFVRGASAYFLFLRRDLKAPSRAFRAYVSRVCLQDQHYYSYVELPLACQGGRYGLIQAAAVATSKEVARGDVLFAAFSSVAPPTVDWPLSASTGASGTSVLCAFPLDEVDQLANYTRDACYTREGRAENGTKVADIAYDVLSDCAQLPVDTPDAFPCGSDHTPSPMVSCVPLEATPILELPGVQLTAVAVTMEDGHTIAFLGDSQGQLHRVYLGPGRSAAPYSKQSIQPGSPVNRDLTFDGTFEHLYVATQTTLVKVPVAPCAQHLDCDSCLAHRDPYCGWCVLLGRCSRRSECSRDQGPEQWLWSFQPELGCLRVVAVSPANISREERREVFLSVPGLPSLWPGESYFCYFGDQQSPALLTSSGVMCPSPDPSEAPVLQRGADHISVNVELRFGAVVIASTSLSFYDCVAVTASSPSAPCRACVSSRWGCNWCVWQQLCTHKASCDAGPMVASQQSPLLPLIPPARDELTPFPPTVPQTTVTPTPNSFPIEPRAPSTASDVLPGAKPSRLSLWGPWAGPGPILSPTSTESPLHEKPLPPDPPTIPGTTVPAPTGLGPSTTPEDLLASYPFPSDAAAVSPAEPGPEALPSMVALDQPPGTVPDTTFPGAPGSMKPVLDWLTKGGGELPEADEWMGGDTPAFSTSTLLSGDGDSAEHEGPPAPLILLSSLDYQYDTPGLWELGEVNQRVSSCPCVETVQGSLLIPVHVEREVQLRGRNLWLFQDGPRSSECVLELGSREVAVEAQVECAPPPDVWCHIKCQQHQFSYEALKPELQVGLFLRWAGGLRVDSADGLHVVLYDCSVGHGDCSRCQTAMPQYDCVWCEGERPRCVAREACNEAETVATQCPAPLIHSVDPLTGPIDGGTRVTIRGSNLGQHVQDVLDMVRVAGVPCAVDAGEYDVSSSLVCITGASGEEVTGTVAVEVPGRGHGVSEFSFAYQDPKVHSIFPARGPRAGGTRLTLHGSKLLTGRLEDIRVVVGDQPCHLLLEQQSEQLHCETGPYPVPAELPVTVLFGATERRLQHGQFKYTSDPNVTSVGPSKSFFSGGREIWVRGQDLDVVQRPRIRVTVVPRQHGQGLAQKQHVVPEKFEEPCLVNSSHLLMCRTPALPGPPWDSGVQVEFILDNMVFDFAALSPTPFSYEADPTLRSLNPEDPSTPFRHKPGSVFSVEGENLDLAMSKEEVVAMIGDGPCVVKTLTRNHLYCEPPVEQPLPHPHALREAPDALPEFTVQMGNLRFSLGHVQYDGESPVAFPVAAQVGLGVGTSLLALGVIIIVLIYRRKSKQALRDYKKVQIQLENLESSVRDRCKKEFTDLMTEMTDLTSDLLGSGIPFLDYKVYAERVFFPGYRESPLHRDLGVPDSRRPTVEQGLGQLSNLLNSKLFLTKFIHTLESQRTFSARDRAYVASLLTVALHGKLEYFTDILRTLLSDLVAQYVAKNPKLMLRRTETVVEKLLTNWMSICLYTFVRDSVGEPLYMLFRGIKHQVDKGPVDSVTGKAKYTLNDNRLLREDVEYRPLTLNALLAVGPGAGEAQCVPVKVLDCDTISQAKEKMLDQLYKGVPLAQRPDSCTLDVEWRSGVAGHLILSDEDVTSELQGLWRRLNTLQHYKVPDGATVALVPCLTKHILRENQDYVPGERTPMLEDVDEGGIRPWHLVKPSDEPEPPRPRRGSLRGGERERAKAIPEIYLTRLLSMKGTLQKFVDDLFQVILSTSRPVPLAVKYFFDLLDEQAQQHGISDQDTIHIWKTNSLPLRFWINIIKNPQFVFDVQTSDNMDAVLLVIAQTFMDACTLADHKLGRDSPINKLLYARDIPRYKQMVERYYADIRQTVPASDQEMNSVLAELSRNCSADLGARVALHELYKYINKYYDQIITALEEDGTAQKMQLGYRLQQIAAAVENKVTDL

B6: binds.

molecular target: T4, full-length mouse CD100 protein MusCD100 on cells (mouse, UniProt O09126 24-861); test: flow cytometry on MusCD100-HEK293 cells
T4 construct: whole, on cells; Overexpressed on HEK293 cells; also called MusCD100-HEK293

B2: binds.
B5: binds.

molecular target: T1, full-length human CD100 protein HuCD100 …; test: flow cytometry on Jurkat cells naturally expressing human CD100
Protocol: as §1

In order of rising EC50:
1. B2  0.302 nM
2. B1  0.346 nM
3. B3  0.559 nM

molecular target: HuCD100-His (human, UniProt Q92854 22-734); test: cell-based or functional assay

In order of falling “MDSC proportion (%) at 2.821 nM antibody” value:
1. B1  34.2%
2. B8  32.6%
3. B7  31.2%
4. B9  30.9%
5. B2  16.8%
6. B5  16.4%

In order of rising “MDSC proportion (%) at 8.463 nM antibody” value:
1. B2  8.97%
2. B5  9.21%
3. B7  17.8%
4. B8  21.1%
5. B9  21.3%
6. B1  23.2%

In order of falling “MDSC proportion (%) at 25.389 nM antibody” value:
1. B7  13.1%
2. B9  11.8%
3. B8  11%
4. B1  10.2%
5. B2  9.56%
6. B5  7.71%

In order of falling “MDSC proportion (%) at 76.166 nM antibody” value:
1. B7  10.5%
2. B2  10.4%
3. B5  7.84%
4. B9  7.66%
5. B8  6.56%
6. B1  5.12%

In order of rising “MDSC proportion (%) at 228.498 nM antibody” value:
1. B1  7.08%
2. B9  8.85%
3. B8  9.06%
4. B7  9.09%
5. B2  10.7%
6. B5  13.7%

In order of rising “MDSC proportion (%) at 685.495 nM antibody” value:
1. B5  10%
2. B7  10.9%
3. B1  11.1%
4. B2  14.7%
5. B9  15%
6. B8  15.6%
